Entries after “also recorded” stand apart in the source; their conditions may differ.
How the values were obtained:
Format in all cases: cell-based
p75^NTR [1] = molecular target: T1, p75^NTR (Mus musculus, UniProt Q9Z0W1); experiment: Proliferation and cytokine secretion of OT-II CD4+ or OT-I CD8+ T-cells co-cultured with murine PDCs
T1 construct: endogenous in cells; host or cells: murine plasmacytoid dendritic cells differentiated in vitro from bone marrow with Flt3-L (p75NTR+/+ wildtype; p75NTR-/- as control)
T1 sequence (Q9Z0W1 32-427): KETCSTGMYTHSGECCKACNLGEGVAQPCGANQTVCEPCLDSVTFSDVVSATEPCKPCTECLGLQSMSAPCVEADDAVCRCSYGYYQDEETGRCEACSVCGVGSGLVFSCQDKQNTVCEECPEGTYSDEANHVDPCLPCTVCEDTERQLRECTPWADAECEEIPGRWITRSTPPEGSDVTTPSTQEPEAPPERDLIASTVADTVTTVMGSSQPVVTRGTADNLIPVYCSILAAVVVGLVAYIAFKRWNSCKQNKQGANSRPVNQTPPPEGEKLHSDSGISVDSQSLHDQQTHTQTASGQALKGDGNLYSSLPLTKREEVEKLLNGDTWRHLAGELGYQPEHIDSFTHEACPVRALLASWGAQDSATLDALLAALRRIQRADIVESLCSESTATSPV
Description: Murine T-cells were isolated either from OT-II mouse strain expressing ovalbumin peptide specific T-cell receptors on CD4+ T-cells or from OT-I mouse strain expressing ovalbumin peptide specific T-cell receptors on CD8+CTLs using the CD8+ T-cell isolation kit (Miltenyi Biotec).

p75^NTR [2] = molecular target: T1, p75^NTR; experiment: Th1 cytokine secretion in co-culture of murine PDCs and OTII T-cells with ovalbumin peptide (CBA); settings: OTII T-cells with p75^NTR+/+ PDCs and ovalbumin peptide 323-339, NGF 100 ng/ml, compared to p75^NTR−/− PDCs
Procedure: Murine T-cells were isolated from the OTII mouse strain expressing mouse alpha-chain and beta-chain T-cell receptor specific for chicken ovalbumin 323-339, using the CD+ T-cell isolation kit (Miltenyi Biotec).
Both, murine PDCs and T-cells were cultured overnight with or without the chicken ovalbumin peptide 323-339 in the presence or absence of NGF (100 ng/ml). The concentrations of T-cell secreted Th1-cytokines IL-2 and IFNγ in the supernatant were determined by using the CBA kit (BD Bioscience) following manufacturer's instruction with modification in data analysis using Microsoft Excel. […] In the presence of p75^NTR+/+ PDCs presenting the ovalbumin peptide (OVA) to the T-cells, T-cells secrete the Th1 cytokines IFNγ (FIG. 5A) and IL-2 (FIG. 5B).

p75^NTR [3] = molecular target: T1, p75^NTR; experiment: Cytokine secretion and TLR9 expression of CpG stimulated murine PDCs
Procedure: Murine PDC were generated in vitro as follows: Bone marrow cells were isolated by flushing femur and tibia of mice. Erythrocytes were lysed using ACK buffer. Remaining cells were washed and cultured at a density of 2×10^6 cells per ml in RPMI 1640 medium supplemented with 10% FCS, 1 mM sodium pyruvat, 2 mM L-glutamine, 100 IU per ml penicillin, 100 μg/ml streptomycin, 10 mM HEPES buffer and 0.1 mM β-mercaptoethanol. To differentiate bone marrow cells into PDCs, 100 ng/ml Flt3-L (fms-like tyrosine kinase 3-ligand) was added to the cells. After 8 days of culture PDCs were enriched by removing the CD11b^+ fraction using CD11b Microbeads (Miltenyi Biotec) according to manufacturer instructions. Dead cells were excluded using Dead cell removal Kit (Miltenyi Biotec). Purity of PDCs was evaluated by flow cytometry (CD11b^−CD11c^+B220^+Siglec-H^+).
Murine PDC express the low affinity neurotrophin receptor p75^NTR but not the high affinity neurotrophin receptors (FIGS. 3A, 3B). […] Furthermore, only p75^NTR expressing PDC (p75^NTR+/+) increased the CPG-ODNs Class B induced secretion of the Th2 response inducing cytokines IL-6 and TNFα in the presence of NGF (FIG. 3D).

[4] = co-culture with PDCs, NGF present
[5] = co-culture with p75^NTR+/+ PDCs, NGF added, compared to p75^NTR−/− PDCs

## NGF: Nerve growth factor, best characterized neurotrophin; natural p75^NTR agonist (R&D Systems)
p75^NTR [1]; [4]
  cytokine secretion of CD8+ T-cells (CTLs) from OT-I strain: secreted less cytokines
  proliferation of CD8+ T-cells (CTLs) from OT-I strain: reduced proliferation
p75^NTR [1]; [5]
  cytokine secretion of CD4+ T-cells from OT-II strain: increased
  proliferation of CD4+ T-cells from OT-II strain: increased
p75^NTR [2]
  secretion of Th1 cytokines IFNγ and IL-2: reduced secretion
p75^NTR [3]; CPG-ODNs Class A (CpG A) stimulated p75^NTR+/+ PDCs, increasing NGF levels
  IFNα secretion: decreasing levels; also recorded: reduced
p75^NTR [3]; CpG A stimulated p75^NTR+/+ PDCs, NGF added
  expression of TLR9: reduced expression; also recorded: negatively influenced
p75^NTR [3]; p75^NTR+/+ PDC in presence of NGF
  CPG-ODNs Class B induced secretion of IL-6 and TNFα: increased
p75^NTR [3]; p75^NTR+/+ PDCs, CpG A or CpG B, presence of NGF
  CpG-induced increase in TLR9 expression level: significantly decreased
p75^NTR [3]; p75^NTR−/− PDCs, CpG A or CpG B stimulation, NGF added
  TLR9 expression of p75^NTR−/− PDCs: does not display a NGF induced alteration of TLR9 expression; also recorded: showed now difference in TLR9 expression

Source: US20190381169A1, “PHARMACEUTICAL COMBINATIONS FOR IMMUNOTHERAPY” (Technische Universitat Dresden, priority 2014, published 2019)
